B1: TPR t1 (parent)
chain: GACCAAUCUGCCCUCAGAGCUCGAGAACAUCUUCGGAUGCAGAGGAGGCAGGCUUCGGUGGCGCGAUAGCGCCAACGUCCUCAACCUCCAAUGCAUCCCACCACAUGAUGAUGCCUGAAGAGCCUUGGUUUUUUG

Variants of: B1
Assay: polymerase ribozyme fitness, log enrichment relative to wild type (log ratio); higher = more active; in vitro selection for triplet polymerase activity
Summary of the method: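 Fitness is a logarithmic measure of how a genotype enriched relative to the wild type, with replicate averages weighted by inverse variance. The logarithm uses base 2, and enrichment came from Illumina sequencing of input and output libraries. Those libraries were PCR-built, transcribed mutants of each subunit of a heterodimeric triplet polymerase ribozyme, passed through one triplicate in vitro selection round that included frozen incubation at −7 °C, gel excision of extended constructs and streptavidin-bead capture. Genotypes were kept only if they had ≥10 input reads and ≥1 read per output.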

Row | Variant | polymerase ribozyme fitness (log ratio)
1 | GACCAAUCUGCCCUCAGAGCUCGAGAACAUCUGCGGAUGCAGAGGAGGCAGGCUUCGGUGGCGCGAUAGCGCCAACGUCCUCAACCUCCAAUGCAUCCCACCAAAUGAUGAUGCCUGAAGCGCCUUGGUUUUUUA [U33G C104A A121C G135A] | -5.07
2 | GACCAAUCUGCCCUCAGAGCUCGAGAACAUCUGCGGAUGCAGAGGAGGCAGGCUUCGGUGGCGCGAUAGCGCGAACGUCCUCAACCUCCAAUUCAUCCCACCACAUGAUGAUGCCUGAAGGGCCUUGGUUUUUUG [U33G C73G G93U A121G] | -5.53
3 | GACCAAUCUGCCCUCAGAGCUCGAGAACAUCUGCGGAUGCAGAGGAGGCAGGCUUCGGUGGCUCGAUAGCGCCAACGUCCUCAACCUCCUAUGCAUCCCACCACAUGAUGGUGCCUGAACAGCCUUGGUUUUUUG [U33G G63U A90U A111G G120C] | -6.96
4 | GACCAAUCUGCCCUCAGAGCUCGAGAACAUCUCCGGAAGCAGAGGAGGGAGGCUUCGGUGGCGCGAUAGCGCCAACGUCCUCAACCUCCAAUGCAUCCCACCCCAUGAUGAUUCCUAAAGAGCCUUGGUUUUUUG [U33C U38A C49G A103C G113U G117A] | -6.59
5 | GACCAAUCUGCCCUCAGAGCUCGAGAACAUCUGCGGAUUCAGAGGAGGCUGGCUUCGGUGGCGCGAUAGCGCCAACGUCCUCAUCCUCCACUGCAUCCCACCACAUGAUGAUGACUGAAGAGCCUUGGUUUUUUG [U33G G39U A50U A84U A91C C114A] | -5.3
6 | GACCAAUCUGCCCUCAGAGCUCGAGAACAUCUGCGCAUGCAGAGGAGGCAGGCUUCGGUGGCGCGAUAGCGCCAACGUCCUCAACCUCCAAUGCAUCCCACCACAUGAUGAUGCCUGAAGAGCCUUGGUUUUUUG [U33G G36C] | -7.66
7 | GACCAAUCUGCCCUCAGAGCUCGAGAACAUCUCCGGAUGCAGAGGAGGCAGGCUUCGGUGACGCGAUAGCGCCAACGUCCUCAACCUCCAAUGCAUCCCACCACAUGAUGAUGCCCGAAGAGCGUUGGUUUUUUG [U33C G61A U116C C124G] | -5.41
8 | GACCAAUCUGCCCUCAGAGCUCGAGAACAUCUCCGGAUGCAGAGGAGGCAGGCUUCGGUGGCGCGAUAGCGCCAACGUCCUCAACCUCCAAUGCAUCCCACCACAUGAUGAUGCCUGAAGAGCUUUGGUUUUUUG [U33C C124U] | -3.97
9 | GACCAAUCUGCCCUCAGAGCUCGAGAACAUCUGCGGAUGCAGAGGAGUCAGGCUUCGGUGGCGCGAUAGCGCCAACGUCCUCAACCUCCAAUGCAUCCCACCACCUGAUGAUGCCUGAAGAGCCUGCGUUUUUUG [U33G G48U A105C U126G G127C] | -6.34
10 | GACCAAUCUGCCCUCAGAGCUCGAGAACAUCUGCGGAUGCAGAGGAGGGAGGCUUCGCUGGCGCGAUAGCGCCAACGUCCUCAACCUCCAAUGCAUCCCACCACAUGAUGAUGCCUGAAGCGCCUUGGUUUUUUG [U33G C49G G58C A121C] | -6.04
11 | GACCAAUCUGCCCUCAGAGCUCGAGAACAUCUGCGGAUGCAGAGGAGGCAGGCUUCGGUGGCGCGAUAGCGCCAACGUCCUCAACCUCCAAUGCAUCCCACCACAUGAUGAUGCCUGGAGAGCCUUGGUUUUUUG [U33G A118G] | -5.59
12 | GACCAAUCUGCCCUCAGAGCUCGAGAACAUCUCCGGAUGCAGAGGAGGCAGGCUUCGGUGGCUCGAUAGCGCCAACGUCCUCAACCUCCAAUGCAUCCCACCACAUGAUGAUGCCUGAAGAGCCUUGGUUUUUUG [U33C G63U] | -3.43
13 | GACCAAUCUGCCCUCAGAGCUCGAGAACAUCUGCGGAUGCAGAGGAGGCAGGCUUCGGUGGCGCGAUAGCGCCAACGUCCUCAACCUCCAAUGGAUCCCACCACAUGAUGAUACCUGAAGAGCCUUGGUUUUUUG [U33G C94G G113A] | -5.56
14 | GACCAAUCUGCCCUCAGAGCUCGAGAACAUCUGCGGUUGCAGAGGAGGAAGGCUUCGGUGGCGCGAUAGCGCCAACGUCCUCAACCUCCAAUGCAUCCCACCACAUGAUGAUGCUUGAAGAGCCUUGGUUGUUUG [U33G A37U C49A C115U U131G] | -6.12
15 | GACCAAUCUGCCCUCAGAGCUCGAGAACAUCUGCGGAUGCAGAGGAGGCAGGCUUCGGUGGCCCGAUAGCGCCAACGUCCUCAACCUCCAAUGCAUCCCACCACAUGAUGAGGCCUGAAGAGCCUUGGAUUUUUG [U33G G63C U112G U129A] | -7.08
16 | GACCAAUCUGCCCUCAGAGCUCGAGAACAUCUCCGGAUGCAGAGGAGGCAGGCUUCGGUGGCGCGAUAGCGCCAACGUUCUCAACCUCCAAUGCAUCCCACCACAUGAUGAUGCCUGAAGAGCCUUGGUUUUUUG [U33C C79U] | -4.51
17 | GACCAAUCUGCCCUCAGAGCUCGAGAACAUCUGCGGAUGCAGAGGAGGGAGGGUUCGGUGUCGCGAUAGCGCCAACGUCCUCAACCUCCAAUGCAUCCCACCACAUGAUGAUGCCUGAAGAGCCUUGGUUUUUUG [U33G C49G C53G G61U] | -7.57
18 | GACCAAUCUGCCCUCAGAGCUCGAGAACAUCUGCGGAUGCAGAGGAGGCAGGCUUCGGUGGCGCGAUAGCGCCAACGUCCUCAACCUCCAAUGCAUACCACCACAUGAUGAUGCCUGAAGAGCCUUGGUUUUUUG [U33G C97A] | -5.28
19 | GACCAAUCUGCCCUCAGAGCUCGAGAACAUCUGCGGAUGCAGAGGAGGCAGGCUUCGGUGGCGCGAUAGCGCCAACGUCCUCACCCUCCAAUGCAUCCCACCACAUGAUGAUGCCUGAAGAGCCUUGGUUUUUUG [U33G A84C] | -6.66
20 | GACCAAUCUGCCCUCAGAGCUCGAGAACAUCUCCGGAGGCAGAGGAGGCAGGCUUCGGUGGCGCGAUAGCGCCAACGUCCUCAACCUCCAAUGCAUCCCACCACAUGAUGAUGCCUGAAGAGCCUUGGUUUUUUG [U33C U38G] | -4.8
21 | GACCAAUCUGCCCUCAGAGCUCGAGAACAUCUCCGGAUGCAGAGGAGGCAGGCUUCGGUGGCGCGAUAGCGCCAACGUCCUCAACCUCCAAUGCAUCCCACCACAUGAUGAUGCCUGAAUAGCCUUGGUUUUUUG [U33C G120U] | -4.63

— the RNAGym collection of RNA variant scans (doi:10.1073/pnas.2313332121)
